Assay in all cases: purified protein
Holding throughout (type): biochemical, Rattus norvegicus

Substrate in series [1]: C/C=C/C(=O)SCCNC(=O)CCNC(=O)[C@H](O)C(C)(C)COP(=O)(O)OP(=O)(O)OC[C@H]1O[C@@H](n2cnc3c(N)ncnc32)[C@H](O)[C@@H]1OP(=O)(O)O
Particulars: 50 mM Tris pH 9.0, 50 mM KCl, BSA, 25 °C, hydratase site.

Substrate in series [2]: CC(=O)CC(=O)SCCNC(=O)CCNC(=O)[C@H](O)C(C)(C)COP(=O)(O)OP(=O)(O)OC[C@H]1O[C@@H](n2cnc3c(N)ncnc32)[C@H](O)[C@@H]1OP(=O)(O)O
Particulars: 0.1 mM NADH, 50 mM Tris/HCl pH 7.0, 50 mM KCl, BSA, 25 °C, dehydrogenase site.

Substrate in series [3]: C[C@H](O)CC(=O)SCCNC(=O)CCNC(=O)[C@H](O)C(C)(C)COP(=O)(O)OP(=O)(O)OC[C@H]1O[C@@H](n2cnc3c(N)ncnc32)[C@H](O)[C@@H]1OP(=O)(O)O
Particulars: 1 mM NAD+, 50 mM Tris pH 9.0, 50 mM KCl, BSA, 25 °C, dehydrogenase site, substrate generated in situ from 2E-butenoyl-CoA by the enzyme's own hydratase site.

This is an account of results in PMC5715344, “Structural enzymology comparisons of multifunctional enzyme, type‐1 (MFE1): the flexibility of its dehydrogenase part” (FEBS Open Bio, 2017).

B1: rat peroxisomal multifunctional enzyme, type-1 (rpMFE1) (Rattus norvegicus) (protein)
chain: MAEYLRLPHSLAMIRLCNPPVNAVSPTVIREVRNGLQKAGSDHTVKAIVICGANGNFCAGADIHGFSAFTPGLALGSLVDEIQRYQKPVLAAIQGVALGGGLELALGCHYRIANAKARVGLPEVTLGILPGARGTQLLPRVVGVPVALDLITSGKYLSADEALRLGILDAVVKSDPVEEAIKFAQKIIDKPIEPRRIFNKPVPSLPNMDSVFAEAIAKVRKQYPGVLAPETCVRSIQASVKHPYEVGIKEEEKLFMYLRASGQAKALQYAFFAEKSANKWSTPSGASWKTASAQPVSSVGVLGLGTMGRGIAISFARVGISVVAVESDPKQLDAAKKIITFTLEKEASRAHQNGQASAKPKLRFSSSTKELSTVDLVVEAVFEDMNLKKKVFAELSALCKPGAFLCTNTSALNVDDIASSTDRPQLVIGTHFFSPAHVMRLLEVIPSRYSSPTTIATVMSLSKKIGKIGVVVGNCYGFVGNRMLAPYYNQGFFLLEEGSKPEDVDGVLEEFGFKMGPFRVSDLAGLDVGWKIRKGQGLTGPSLPPGTPVRKRGNSRYSPLGDMLCEAGRFGQKTGKGWYQYDKPLGRIHKPDPWLSTFLSQYREVHHIEQRTISKEEILERCLYSLINEAFRILEEGMAARPEHIDVIYLHGYGWPRHKGGPMFYAASVGLPTVLEKLQKYYRQNPDIPQLEPSDYLRRLVAQGSPPLKEWQSLAGPHGSKL
notes: full length, 722 residues, pET15b recombinant; crystal model of molecule A starts at residue -4 (N-terminal vector/tag residues present); monomer
Turning to B1, in series [1], the Km came out at 82.0 ± 18.0 µM, the turnover number (kcat) worked out at 113 ± 33 s⁻¹ and the kcat/Km amounted to 1.4e+06 M⁻¹ s⁻¹. For the same protein, in series [2], the Km stood at 44.0 ± 15.0 µM, the kcat is 23 ± 2.3 s⁻¹ and the kcat/Km was 500000 M⁻¹ s⁻¹. In series [3], the Km was 3.6 ± 1.0 µM, the kcat worked out at 1.7 ± 0.1 s⁻¹ and the kcat/Km is 500000 M⁻¹ s⁻¹.
